Drawing on PMC3079584, “A Cytoplasmic Complex Mediates Specific mRNA Recognition and Localization in Yeast”, this text covers binding result, Kd and binding signal for one molecule.

For data set [1], the target named is She2p (Saccharomyces cerevisiae, UniProt P36068 1-246). Description: filter binding; +++ reference; EMSA: 20 mM HEPES pH 7.8, 200 mM NaCl, 2 mM MgCl2, 2 mM DTT, 4% glycerol, 30 or 100 ug/ml yeast tRNA, 5 nM RNA, 20 C; filter binding: 20 mM HEPES pH 7.4-7.5 (7.9 with She3p), 150 mM NaCl, 2 mM MgCl2, 2 mM DTT, 30 ug/ml yeast tRNA, 0.5 nM RNA; pull-down: HNMD buffer, 4 C. The conditions noted are these: protein: recombinant; tags: GST tag (PreScission-cleaved); chain copies: 4; label: 32P; stem-loop. (In EMSA bound probe runs differently from free probe, usually more slowly.)

In data set [2] the target is She2p;She3p (R341E) (Saccharomyces cerevisiae;Saccharomyces …, UniProt P36068;P38272 1-246;1-425, |R341E). As to the kind of experiment: EMSA; synergism +++; EMSA: 20 mM HEPES pH 7.8, 200 mM NaCl, 2 mM MgCl2, 2 mM DTT, 4% glycerol, 30 or 100 ug/ml yeast tRNA, 5 nM RNA, 20 C; filter binding: 20 mM HEPES pH 7.4-7.5 (7.9 with She3p), 150 mM NaCl, 2 mM MgCl2, 2 mM DTT, 30 ug/ml yeast tRNA, 0.5 nM RNA; pull-down: HNMD buffer, 4 C. Particulars: protein: recombinant;recombinant; tags: GST tag (PreScission-cleaved);C-terminal His6; chain copies: 4;2; label: 32P; stem-loop.

The target in data set [3] is She2p;She3p (S343E S361E) (Saccharomyces cerevisiae;Saccharomyces …, UniProt P36068;P38272 1-246;1-425, |S343E;S361E). The data set is described as above. Particulars: protein: recombinant;recombinant; tags: GST tag (PreScission-cleaved);C-terminal His6; chain copies: 4;2; label: 32P; stem-loop.
For data set [4], the target named is She2p (E183A D184A G185A);She3p (Saccharomyces cerevisiae;Saccharomyces …, UniProt P36068;P38272 1-246;1-425, E183A;D184A;G185A|). Described as above. The conditions noted are these: protein: recombinant;recombinant; tags: GST tag (PreScission-cleaved);C-terminal His6; chain copies: 4;2; label: 32P; stem-loop.
Data set [5] deals with She2p (T191A D192A);She3p (Saccharomyces cerevisiae;Saccharomyces …, UniProt P36068;P38272 1-246;1-425, T191A;D192A|). The description is as above. The conditions noted are these: protein: recombinant;recombinant; tags: GST tag (PreScission-cleaved);C-terminal His6; chain copies: 4;2; label: 32P; stem-loop.
Data set [6] has as its target She2p;She3p (Saccharomyces cerevisiae;Saccharomyces …, UniProt P36068;P38272 1-246;1-425, |). As to the kind of experiment: EMSA; She3p constant 25 nM, She2p varied; EMSA: 20 mM HEPES pH 7.8, 200 mM NaCl, 2 mM MgCl2, 2 mM DTT, 4% glycerol, 30 or 100 ug/ml yeast tRNA, 5 nM RNA, 20 C; filter binding: 20 mM HEPES pH 7.4-7.5 (7.9 with She3p), 150 mM NaCl, 2 mM MgCl2, 2 mM DTT, 30 ug/ml yeast tRNA, 0.5 nM RNA; pull-down: HNMD buffer, 4 C. Particulars: protein: recombinant;recombinant; tags: GST tag (PreScission-cleaved);C-terminal His6; chain copies: 4;2; label: 32P; stem-loop.

Data set [7] addresses She2p (ΔhE);She3p (Saccharomyces cerevisiae;Saccharomyces …, UniProt P36068;P38272 1-246;1-425, del174-183|). As to the kind of experiment: EMSA; no mobility shift; EMSA: 20 mM HEPES pH 7.8, 200 mM NaCl, 2 mM MgCl2, 2 mM DTT, 4% glycerol, 30 or 100 ug/ml yeast tRNA, 5 nM RNA, 20 C; filter binding: 20 mM HEPES pH 7.4-7.5 (7.9 with She3p), 150 mM NaCl, 2 mM MgCl2, 2 mM DTT, 30 ug/ml yeast tRNA, 0.5 nM RNA; pull-down: HNMD buffer, 4 C. The conditions noted are these: protein: recombinant;recombinant; tags: GST tag (PreScission-cleaved);C-terminal His6; chain copies: 4;2; label: 32P; stem-loop.

The target in data set [8] is She2p (ΔC);She3p (Saccharomyces cerevisiae;Saccharomyces …, UniProt P36068;P38272 1-240;1-425, |). As to the kind of experiment: EMSA; She3p 25 nM; at least 25 nM She2p(ΔC) required; EMSA: 20 mM HEPES pH 7.8, 200 mM NaCl, 2 mM MgCl2, 2 mM DTT, 4% glycerol, 30 or 100 ug/ml yeast tRNA, 5 nM RNA, 20 C; filter binding: 20 mM HEPES pH 7.4-7.5 (7.9 with She3p), 150 mM NaCl, 2 mM MgCl2, 2 mM DTT, 30 ug/ml yeast tRNA, 0.5 nM RNA; pull-down: HNMD buffer, 4 C. Particulars: protein: recombinant;recombinant; tags: GST tag (PreScission-cleaved);C-terminal His6; label: 32P; stem-loop.
Chain of She2p (ΔC);She3p (P36068 1-240, stated change not applied, one chain of several): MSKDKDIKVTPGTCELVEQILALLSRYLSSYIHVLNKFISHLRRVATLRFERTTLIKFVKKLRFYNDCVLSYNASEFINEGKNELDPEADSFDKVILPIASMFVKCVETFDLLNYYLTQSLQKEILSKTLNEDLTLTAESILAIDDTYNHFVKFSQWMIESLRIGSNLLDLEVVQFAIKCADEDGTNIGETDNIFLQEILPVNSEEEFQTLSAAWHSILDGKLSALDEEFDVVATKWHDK

Chain of She2p (E183A D184A G185A);She3p (P36068 whole entry E183A/D184A/G185A, one chain of several): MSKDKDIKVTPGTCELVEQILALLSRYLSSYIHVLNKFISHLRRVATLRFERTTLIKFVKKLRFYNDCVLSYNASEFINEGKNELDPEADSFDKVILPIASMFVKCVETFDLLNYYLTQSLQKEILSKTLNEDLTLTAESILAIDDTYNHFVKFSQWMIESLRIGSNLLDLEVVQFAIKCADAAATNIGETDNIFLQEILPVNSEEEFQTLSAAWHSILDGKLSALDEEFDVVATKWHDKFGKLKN
Chain of She2p (T191A D192A);She3p (P36068 whole entry T191A/D192A, one chain of several): as the sequence (P36068 whole entry E183A/D184A/G185A, one chain of several) above, with A183E, A184D, A185G, T191A, D192A counted along it
Chain of She2p (ΔhE);She3p (P36068 other isoform, or with tags, fused parts or gaps del174-183| | mutant): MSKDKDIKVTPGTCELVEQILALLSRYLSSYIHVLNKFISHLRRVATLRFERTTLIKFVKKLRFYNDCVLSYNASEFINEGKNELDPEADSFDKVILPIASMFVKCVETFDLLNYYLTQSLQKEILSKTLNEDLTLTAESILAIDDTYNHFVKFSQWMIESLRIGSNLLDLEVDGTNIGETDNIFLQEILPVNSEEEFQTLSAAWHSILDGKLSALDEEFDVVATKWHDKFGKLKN
Chain of She2p;She3p (R341E) (P36068 whole entry, stated change not applied, one chain of several): as the sequence (P36068 whole entry E183A/D184A/G185A, one chain of several) above, with A183E, A184D, A185G counted along it
Chain of She2p;She3p (P36068 whole entry, one chain of several): as the sequence (P36068 whole entry E183A/D184A/G185A, one chain of several) above, with A183E, A184D, A185G counted along it
Chain of She2p;She3p (S343E S361E) (P36068 whole entry, stated change not applied, one chain of several): as the sequence (P36068 whole entry E183A/D184A/G185A, one chain of several) above, with A183E, A184D, A185G counted along it
Chain of She2p (P36068 whole entry): as the sequence (P36068 whole entry E183A/D184A/G185A, one chain of several) above, with A183E, A184D, A185G counted along it

B1: ASH1 E3-118 (structured_RNA)
RNA: GAGACAGUAGAGAAUUGAUACAUGGAUAACUGAAUCUCUUUCAACUAAUAAGAGACAUUAUCACGAAACAAUUGUACAUUUCUCUCCUUGUCUGUGCUAAAUAAACUACAAAUAAAAA
B1: the binding result was “binds” in data set [1]; “binds” in data set [2]; “binds” in data set [3]; “binds” in data set [4]; “binds” in data set [5]; “no binding” in data set [7]. For the same molecule, in data set [6], the Kd (in general, the constant that tells how readily two partners part at equilibrium) is roughly 25 nM. Also, the binding signal in data set [8] was roughly 5 fold reduced.
